B1: Spectrin alpha chain, erythrocytic 1, residues 979 to 1036; numbered along this chain, P02549 (parent)
chain: EQRVMALYDFQARSPREVTMKKGDVLTLLSSINKDWWKVEAADHQGIVPAVYVRRLAH

For 46 variants, abundance fitness results are on record in the Human Domainome abundance scans (Beltran et al. 2025).

± gives the uncertainty stated by the source.

In the data set the parent is B1. The data set is described as follows: abundance fitness (aPCA) (normalised: wild type 0, dead -1); higher = more abundant; growth selection in yeast, the domain comes from the species named. Conditions: Homo sapiens.
Turning to EQRVMALYDFQARSPREVTMKKGDVLTLLSSINKDWWMVEAADHQGIVPAVYVRRLAH [K38M], the abundance fitness is 0.083 ± 0.17.

EQRVMALYDFQARSPREVTMKKGDVLTLLSSINKDWWSVEAADHQGIVPAVYVRRLAH [K38S]: the abundance fitness is -0.301 ± 0.096.

As to EQRVMALYDFQARSPREVTMKKGDVLTLLSSINKDWWWVEAADHQGIVPAVYVRRLAH [K38W], the abundance fitness is -0.168 ± 0.076.

Consider EQRVMALYDFQARSPREVTMKKGDVLTLLSSINKDWWHVEAADHQGIVPAVYVRRLAH [K38H], for which the abundance fitness was -0.016 ± 0.4.

As for EQRVMALYDFQARSPREVTMKKGDVLTLLSSINKDWWYVEAADHQGIVPAVYVRRLAH [K38Y], the abundance fitness was -0.311 ± 0.28.

EQRVMALYDFQARSPREVTMKKGDVLTLLSSINKDWWIVEAADHQGIVPAVYVRRLAH [K38I]: the abundance fitness was 0.097 ± 0.38.

EQRVMALYDFQARSPREVTMKKGDVLTLLSSINKDWWPVEAADHQGIVPAVYVRRLAH [K38P]: the abundance fitness was -0.701 ± 0.34.

Take EQRVMALYDFQARSPREVTMKKGDVLTLLSSINKDWWVVEAADHQGIVPAVYVRRLAH [K38V]: the abundance fitness turned out to be 0.303 ± 0.061.

In the case of EQRVMALYDFQARSPREVTMKKGDVLTLLSSINKDWWTVEAADHQGIVPAVYVRRLAH [K38T], the abundance fitness was 0.373 ± 0.14.

EQRVMALYDFQARSPREVTMKKGDVLTLLSSINKDWWGVEAADHQGIVPAVYVRRLAH [K38G]: the abundance fitness was -0.832 ± 0.41.

Take EQRVMALYDFQARSPREVTMKKGDVLTLLSSINKDWWQVEAADHQGIVPAVYVRRLAH [K38Q]: the abundance fitness turned out to be 0.041 ± 0.24.

In the case of EQRVMALYDFQARSPREVTMKKGDVLTLLSSINKDWWRVEAADHQGIVPAVYVRRLAH [K38R], the abundance fitness was -0.033 ± 0.14.

Turning to EQRVMALYDFQARSPREVTMKKGDVLTLLSSINKDWWKVSAADHQGIVPAVYVRRLAH [E40S], the abundance fitness was -0.187 ± 0.11.

As to EQRVMALYDFQARSPREVTMKKGDVLTLLSSINKDWWKVAAADHQGIVPAVYVRRLAH [E40A], the abundance fitness was found to be 0.243 ± 0.058.

For the variant EQRVMALYDFQARSPREVTMKKGDVLTLLSSINKDWWKVPAADHQGIVPAVYVRRLAH [E40P], the abundance fitness was -0.744 ± 0.5.

Regarding EQRVMALYDFQARSPREVTMKKGDVLTLLSSINKDWWKVQAADHQGIVPAVYVRRLAH [E40Q], the abundance fitness turned out to be 0.188 ± 0.17.

On to EQRVMALYDFQARSPREVTMKKGDVLTLLSSINKDWWKVGAADHQGIVPAVYVRRLAH [E40G], for which the abundance fitness is -0.217 ± 0.14.

Consider EQRVMALYDFQARSPREVTMKKGDVLTLLSSINKDWWKVLAADHQGIVPAVYVRRLAH [E40L], for which the abundance fitness is -0.652 ± 0.12.

For EQRVMALYDFQARSPREVTMKKGDVLTLLSSINKDWWKVTAADHQGIVPAVYVRRLAH [E40T], the abundance fitness is -0.222 ± 0.19.

Turning to EQRVMALYDFQARSPREVTMKKGDVLTLLSSINKDWWKVRAADHQGIVPAVYVRRLAH [E40R], the abundance fitness was 0.217 ± 0.086.

With EQRVMALYDFQARSPREVTMKKGDVLTLLSSINKDWWKVKAADHQGIVPAVYVRRLAH [E40K], the abundance fitness was determined as 0.29 ± 0.21.

For the variant EQRVMALYDFQARSPREVTMKKGDVLTLLSSINKDWWKVDAADHQGIVPAVYVRRLAH [E40D], the abundance fitness is -0.388 ± 0.094.

Turning to EQRVMALYDFQARSPREVTMKKGDVLTLLSSINKDWWKVVAADHQGIVPAVYVRRLAH [E40V], the abundance fitness is -0.573 ± 0.21.

On to EQRVMALYDFQARSPREVTMKKGDVLTLLSSINKDWWKVMAADHQGIVPAVYVRRLAH [E40M], for which the abundance fitness is -0.125 ± 0.26.

As for EQRVMALYDFQARSPREVTMKKGDVLTLLSSINKDWWKFEAADHQGIVPAVYVRRLAH [V39F], the abundance fitness was -0.658 ± 0.42.

Turning to EQRVMALYDFQARSPREVTMKKGDVLTLLSSINKDWWKSEAADHQGIVPAVYVRRLAH [V39S], the abundance fitness was -0.886 ± 0.13.

As for EQRVMALYDFQARSPREVTMKKGDVLTLLSSINKDWWKREAADHQGIVPAVYVRRLAH [V39R], the abundance fitness is -0.852 ± 0.24.

On to EQRVMALYDFQARSPREVTMKKGDVLTLLSSINKDWWKEEAADHQGIVPAVYVRRLAH [V39E], for which the abundance fitness was -0.332 ± 0.18.

As for EQRVMALYDFQARSPREVTMKKGDVLTLLSSINKDWWKGEAADHQGIVPAVYVRRLAH [V39G], the abundance fitness was -0.705 ± 0.22.

As to EQRVMALYDFQARSPREVTMKKGDVLTLLSSINKDWWKWEAADHQGIVPAVYVRRLAH [V39W], the abundance fitness was -0.564 ± 0.2.

Consider EQRVMALYDFQARSPREVTMKKGDVLTLLSSINKDWWKPEAADHQGIVPAVYVRRLAH [V39P], for which the abundance fitness was -0.319 ± 0.44.

EQRVMALYDFQARSPREVTMKKGDVLTLLSSINKDWWKKEAADHQGIVPAVYVRRLAH [V39K]: the abundance fitness was -0.742 ± 0.43.

With EQRVMALYDFQARSPREVTMKKGDVLTLLSSINKDWWKVEACDHQGIVPAVYVRRLAH [A42C], the abundance fitness is -0.197 ± 0.24.

On to EQRVMALYDFQARSPREVTMKKGDVLTLLSSINKDWWKVELADHQGIVPAVYVRRLAH [A41L], for which the abundance fitness is -0.208 ± 0.16.

As for EQRVMALYDFQARSPREVTMKKGDVLTLLSSINKDWWKVESADHQGIVPAVYVRRLAH [A41S], the abundance fitness was determined as 0.232 ± 0.12.

As to EQRVMALYDFQARSPREVTMKKGDVLTLLSSINKDWWKVECADHQGIVPAVYVRRLAH [A41C], the abundance fitness was 0.001 ± 0.086.

For the variant EQRVMALYDFQARSPREVTMKKGDVLTLLSSINKDWWKVEYADHQGIVPAVYVRRLAH [A41Y], the abundance fitness was -0.448 ± 0.45.

As for EQRVMALYDFQARSPREVTMKKGDVLTLLSSINKDWWKVEKADHQGIVPAVYVRRLAH [A41K], the abundance fitness was determined as 0.033 ± 0.21.

On to EQRVMALYDFQARSPREVTMKKGDVLTLLSSINKDWWKVENADHQGIVPAVYVRRLAH [A41N], for which the abundance fitness was -0.024 ± 0.23.

On to EQRVMALYDFQARSPREVTMKKGDVLTLLSSINKDWWKVEVADHQGIVPAVYVRRLAH [A41V], for which the abundance fitness is -0.633 ± 0.33.

In the case of EQRVMALYDFQARSPREVTMKKGDVLTLLSSINKDWWKVEQADHQGIVPAVYVRRLAH [A41Q], the abundance fitness was -0.287 ± 0.36.

As for EQRVMALYDFQARSPREVTMKKGDVLTLLSSINKDWWKVETADHQGIVPAVYVRRLAH [A41T], the abundance fitness was 0.043 ± 0.15.

For the variant EQRVMALYDFQARSPREVTMKKGDVLTLLSSINKDWWKVEGADHQGIVPAVYVRRLAH [A41G], the abundance fitness came out at 0.154 ± 0.08.

Regarding EQRVMALYDFQARSPREVTMKKGDVLTLLSSINKDWWKVEEADHQGIVPAVYVRRLAH [A41E], the abundance fitness was -0.851 ± 0.49.

With EQRVMALYDFQARSPREVTMKKGDVLTLLSSINKDWWKVERADHQGIVPAVYVRRLAH [A41R], the abundance fitness was 0.049 ± 0.092.

Turning to EQRVMALYDFQARSPREVTMKKGDVLTLLSSINKDWWKVEIADHQGIVPAVYVRRLAH [A41I], the abundance fitness was -0.482 ± 0.35.
